Test results as given in article PMC3946051 (Molecular microbiology, 2014).
One block for each molecule: values may come before it.

Experiments:
CrtJ (R. capsulatus) [1] = biological target: CrtJ (R. capsulatus) (UniProt P26167); test: MST
CrtJ (R. capsulatus) [2] = biological target: CrtJ (R. capsulatus) (UniProt P26167); test: SEC
SEC = biological target: the molecule itself; test: SEC

EC50 (CrtJ (R. capsulatus) [1]): 3.3 µM
stoichiometry N (CrtJ (R. capsulatus) [2]): 1
Molecule: AerR:B12 (natural protein)

B1: CrtJ (natural protein, R. capsulatus, UniProt P26167 1-469, looked up)
chain: MTSDGSFLMRREALQRVSPDLLADIVTSACDIALVVSPGRVVESVMVNPQFGSAERFAAWQGARLSQLFSPESAQKLENRLADGPEPGRSLQLELTHAADAFTLPVRYTITRSGEDGTLLLIGRDMQPLAEVQQQLVKAQLALERDYEAQREIETRYRVLLEAHPAPLLIVSMSTGRIADLNLAAAAMIGATRAELIDAPVGQELDGRRRGEFLENLAKIAGSDPLGAVELTIRRSRRKVTVTATLFRAAGDRLLLCRLGEAEARRTRVDDTVELSERLFLKGIDAMVFLDADGTIRAANDAFLYLTDAGSAALVQGRSFADFLSRGAVDLNVLLDNVKRIGHLRHYVTRLNTDFSGQVTVELSATLFHDRATPTIALVIRDSNLADATRIMPGMASNEGLRNVMQMVGYATLRDIVSETTEIIEKMCIETALELTGNNRVAAAELLSLSRQSLYVKLRKFGLLSKDAE
stoichiometry N (SEC): 2
